In article PMC7555452, “Functional Characterization of a Putative RNA Demethylase ALKBH6 in Arabidopsis Growth and Abiotic Stress Responses”:

Target: T1, ALKBH6 (Arabidopsis thaliana, UniProt Q9SUP1 1-241)
T1 sequence: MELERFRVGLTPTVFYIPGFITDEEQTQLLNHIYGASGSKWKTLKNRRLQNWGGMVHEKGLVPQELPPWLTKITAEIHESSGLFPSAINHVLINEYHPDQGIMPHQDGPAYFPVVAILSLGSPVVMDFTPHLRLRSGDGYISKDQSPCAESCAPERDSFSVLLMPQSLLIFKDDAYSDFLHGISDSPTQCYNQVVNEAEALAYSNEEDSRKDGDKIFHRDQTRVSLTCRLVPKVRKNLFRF
Assay: EMSA; 3, 5, 7 uM protein; 10 mM Tris-HCl pH 8.0, 150 mM NaCl, 1.0 mM EDTA, 10% glycerol; 5.0 pmol RNA in 20 uL, on ice 30 min; 6% native PAGE, 0.25x TBE, 4 °C
Conditions: protein: recombinant; tags: His-TF (pCold TF) fusion, cleaved with HRV 3C protease; Ni-NTA purified; label: 5'-fluorescein

| Binder | binding result |
| --- | --- |
| GAAUCCGAACUAGUUCU (ssRNA) [SOS3 RNA unmodified] | binds |
| CGUAGGCUACAGAGAAGCCUU (ssRNA, m6A at position 11) [MAT2A RNA m6A] | binds |
| CGUAGGCUACAGAGAAGCCUU (ssRNA) [MAT2A RNA unmodified] | binds |
| GAAUCCGAACUAGUUCU (ssRNA, m6A at position 9) [SOS3 RNA m6A] | binds |
| GGACGCUUCUUCGACCU (ssRNA, m5C at position 9) [m5C motif RNA m5C] | binds |
| GGACGCUUCUUCGACCU (ssRNA) [m5C motif RNA unmodified] | binds |
